Source: patent US20120128584A1 (ONCOTHERAPY SCIENCE, published 2012)

Biological target: T1, placental cadherin (P-cadherin; CDH3) (human, UniProt P22223 108-829)
T1 construct: Native CDH3 on the surface of the cancer cell lines H358 and KLM-1; also called native CDH3 protein; CDH3 antigen
Test: hybridoma screening on cancer cells carrying native CDH3
Source text: CDH3 gene encoded extracellular domain (SEQ ID NO: 3) was amplified from cDNA pool derived from cancer cells. The product was cloned into the pcDNA3.1 (Invitrogen, CA). To produce CDH3-specific antibody, mice were immunized subcutaneously with the domain expression vector (17.5 mcg/injection) every two weeks for a month. After the confirmation of the titer of antisera, spleenocytes were extracted from the mice and fused to myeloma cells to prepare hybridomas. We screened the hybridomas which can recognize native CDH3 antigen on the surface of the cancer cells. […] The hybridoma clone #6 was used to inject intraperitoneally into mice. The ascites was recovered after 2 to 3 weeks. Finally antibody was purified from the ascites using Protein A column (GE Healthcare, NJ).

T1 sequence (P22223 108-829 limits assumed): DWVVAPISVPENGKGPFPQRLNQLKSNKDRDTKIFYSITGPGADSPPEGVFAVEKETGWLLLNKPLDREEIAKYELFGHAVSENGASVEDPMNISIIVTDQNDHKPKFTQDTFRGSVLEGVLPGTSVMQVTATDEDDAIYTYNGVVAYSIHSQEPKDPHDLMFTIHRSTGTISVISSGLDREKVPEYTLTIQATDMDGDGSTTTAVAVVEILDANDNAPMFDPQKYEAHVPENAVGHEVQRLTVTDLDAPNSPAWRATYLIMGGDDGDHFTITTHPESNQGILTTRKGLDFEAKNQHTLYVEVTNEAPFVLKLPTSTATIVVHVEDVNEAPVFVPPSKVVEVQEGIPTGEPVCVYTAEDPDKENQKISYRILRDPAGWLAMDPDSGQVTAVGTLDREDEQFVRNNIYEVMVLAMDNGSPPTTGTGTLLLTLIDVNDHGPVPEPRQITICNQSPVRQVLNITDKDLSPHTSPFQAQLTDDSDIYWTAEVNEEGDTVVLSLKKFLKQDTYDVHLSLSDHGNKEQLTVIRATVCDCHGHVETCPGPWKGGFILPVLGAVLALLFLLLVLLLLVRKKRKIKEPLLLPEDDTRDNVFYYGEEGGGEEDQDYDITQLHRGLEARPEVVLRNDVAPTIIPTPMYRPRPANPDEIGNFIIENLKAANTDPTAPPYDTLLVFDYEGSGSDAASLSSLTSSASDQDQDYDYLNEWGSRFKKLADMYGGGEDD

- binding result: binds
B1: Anti-CDH3 mouse monoclonal antibody produced by hybridoma clone #6 (antibody, V domains shown)
VH: QVQLQQPGAELVKPGTSVKLSCKSSGYTFTSYWIHWVKQRPGHGLEWIGEIDPSDNYTYYNQNFKGKATLTIDKSSSTAYMQLNSLTSEDSAVFYCARSGYGNLFVYWGQGTLVTVSA
VL: QIVLTQSPAIMSSSPGEKVTMSCSATSSVTYMYWYQQKPGSSPKPWIFRTSNLASGVPTRFSGSGSGTSYSLTISSMEAEDAATYYCQHYHIYPRTFGGGTKL
notes: The VL as printed ends at 'TKL'
